For this data set, the target named is T1, N-HvGR-RBP1 (RRM domain) (Hordeum vulgare L., UniProt J7FTI7 1-92).
T1 sequence: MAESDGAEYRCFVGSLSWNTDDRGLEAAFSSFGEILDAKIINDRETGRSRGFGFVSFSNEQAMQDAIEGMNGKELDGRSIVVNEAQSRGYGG
In words: NMR.

As to TTCTGA (ssDNA) [TTCTGA 6-mer], the binding result is “binds”.
Consider TTCTGT (ssDNA) [TTCTGT 6-mer], for which the binding result is “binds”.
